Experimental data reported in publication PMC3716694, “Crystal structure of signal regulatory protein gamma (SIRPγ) in complex with an antibody Fab fragment” (BMC Structural Biology, 2013).

Columns and labels:
[1] = molecular target: T1, extracellular region of human signal regulatory protein gamma (SIRPγ) (human, UniProt Q9P1W8-1, high-mannose N-glycans (CHO Lec3.2.8.1); in the crystal de-glycosylated with endoglycosidase F1, N-acetylglucosamine modelled at residue 240); test: AUC; sedimentation velocity of SIRPγ: FabOX117 mixtures (2:1 and 1:2), total 1 mg/ml (13.7/6.3 μM), 40 000 rpm, 20 mM Tris-HCl pH 7.5, 200 mM NaCl, 20°C; conditions: both partners purified
T1 construct: SIRPγ, human, residues 29-347 of NP_061026, three Ig-like domains d1-d3; Glycosylated in the AUC experiments, Endo F1-treated in the crystal; also called SIRPβ2

[2] = molecular target: T1, extracellular region of human signal …; test: AUC; sedimentation equilibrium of SIRPγ: FabOX117 mixtures at 2:1, 1:1 and 1:2, total 1 mg/ml, 15 000, 20 000, 28 000 and 36 000 rpm, fitted to A + B ↔ AB (SEDPHAT), 20 mM Tris-HCl pH 7.5, 200 mM NaCl, 20°C; conditions: both partners purified

T1 sequence (Q9P1W8 29-347): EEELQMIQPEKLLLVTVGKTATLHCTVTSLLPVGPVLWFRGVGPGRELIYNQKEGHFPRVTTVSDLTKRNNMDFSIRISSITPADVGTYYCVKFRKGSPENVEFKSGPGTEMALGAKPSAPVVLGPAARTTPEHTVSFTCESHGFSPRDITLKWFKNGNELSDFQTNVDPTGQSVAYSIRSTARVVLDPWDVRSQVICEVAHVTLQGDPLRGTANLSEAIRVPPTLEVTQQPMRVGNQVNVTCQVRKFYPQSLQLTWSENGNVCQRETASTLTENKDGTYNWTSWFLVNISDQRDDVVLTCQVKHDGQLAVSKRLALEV

stoichiometry N [1]: 1
Kd [2]: 1200 nM
B1: Fab fragment of the anti-SIRP monoclonal antibody OX117 (Fab, V domains shown)
VH: EVKLQQSGPELVKPGASVKISCKASGYSFTSYYIHWVKQRPGQGLEWIGWVFPGSGNTKYNEKFKGKATLTADTSSSTAYMQLSSLTSEDSAVYFCARGNYDRAWFAYWGQGTLVTVSA
VL: DIVITQSPKFMSTSVGDRVSITCKASQDVSTAVAWFQQKPGQSPKLLIYSASYRYTGVPDRFTGSGSGTDFTFTISSVQAEDLAVYYCQQHYSTPWTFGGGTKLEIK
notes: Fd region (Vh and CH1 domains) of OX117, 220 residues; light chain of OX117, 214 residues; Recombinant Fab; also called FabOX117; not shown: His6, C-terminal, kept
